Experimental data published in publication PMC10583602.

What was measured:
[1] = target: TnsC with the apical loop E69-D75 deleted (Vibrio cholerae); test: SEC
[2] = target: TnsC(ΔA106–A113) (Vibrio cholerae); test: SEC
[3] = target: Vibrio cholerae TnsC (VchTnsC), full length, tag cleaved (Vibrio cholerae); test: cryo-EM structure
[4] = target: Vibrio cholerae TnsC (VchTnsC), full length, tag cleaved (Vibrio cholerae); test: SEC

For “TnsC with the apical loop E69-D75 deleted (natural protein)”, the stoichiometry N [1] was 7.

With TnsC(ΔA106–A113) (natural protein) the stoichiometry N [2] was 7.

In the case of “Vibrio cholerae TnsC (VchTnsC), full length, tag cleaved (natural protein)”, the stoichiometry N [3] is reported as 7 and the stoichiometry N [4] is reported as 7.
